Results from the supplement of paper PMC10567573.

B1: IMPA1 (parent)
chain: FIGEESVAAGEKSILTDNPTWIID
B2: SMOC2 (parent)
chain: PALETQPQGDEEDIASRYPTLWTE

Variants of: B1
Assay: protein stability index of a GFP-peptide fusion (GPS, HEK-293T) (PSI 1-6); higher = more stable
Conditions: c terminus: a fixed tail appended
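Further: lentivirally expressed fusions sorted by FACS into six bins by GFP to DsRed ratio, PSI derived from sequencing read proportions per bin multiplied by bin number.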

Variant	protein stability index
T20R	2.73
T20M	1.82
T20V	2.65
T20C	2.2
T20E	3.67
T20D	3.32
T20I	1.73
T20G	2.71
T20F	2.29
T20W	2.03
T20S	2.56
T20N	3.1
T20P	2.25
T20A	2.43
T20Q	3.09
T20K	3.4
T20L	2.05
T20H	2.67
T20Y	1.7
P19Y	2.18
P19V	2.39
P19T	2.83
P19W	1.96
D24N	1.66
D24C	1.72

Variant	protein stability index
D24V	1.86
D24E	2.03
D24Y	2.33
D24W	2.06
D24L	2.05
D24H	2.01
D24T	1.7
D24R	1.59
D24M	2.05
D24I	1.16
D24S	1.76
D24K	2.07
D24P	2.04
D24A	1.71
D24G	2.44
D24Q	2.15
D24F	2.2
W21I	3.92
W21G	4.71
W21P	4.67
W21N	4.57
W21V	4.95
W21Q	4.65
W21C	4.23
W21S	4.41

Variant	protein stability index
W21F	3.89
W21A	4.65
W21D	4.85
W21K	4.78
W21M	4.69
W21E	5.07
W21L	4.06
W21T	4.87
W21Y	3.96
W21R	4.48
W21H	4.71
I23H	3.75
I23F	2.81
I23C	3.44
I23A	1.84
I23T	1.92
I23P	3.04
I23V	2.02
I23L	3.6
I23R	3.9
I23E	3.85
I23G	2.99
I23Q	3.39
I23N	3.55
I23M	2.52

Variant	protein stability index
I23K	3.64
I23D	3.04
I23W	2.59
I23Y	3.45
I23S	2.27
I22W	2.33
I22Q	2.75
I22N	3.12
I22E	4.71
I22P	3.76
I22A	1.76
I22Y	2.82
I22G	3.11
I22V	2.31
I22L	2.67
I22T	1.68
I22R	2.09
I22C	2.18
I22F	2.01
I22S	2.35
I22M	2.57
I22H	3.37
I22D	4.58
I22K	2.48

Variants of: B2
Assay: as above
Conditions: c terminus: a fixed tail appended

Variant	protein stability index
E12K	3.56
E12S	4.46
E12M	3.7
E12A	3.94
E12N	4.11
E12I	3.68
E12W	3.39
E12F	4.2
E12C	4.12
E12T	4.34
E12G	2.63
E12R	3.93
E12Y	3.75
E12V	3.75
E12H	3.74
E12D	4.41
E12Q	4.42
E12L	3.68
E12P	4.33
T5E	4.99
T5V	3.77
T5K	3.88
T5P	4.58
T5W	4.51

Variant	protein stability index
T5C	4.61
T5N	4.54
T5H	4.64
T5G	4.3
T5D	5.12
T5Y	4.65
T5Q	4.72
T5A	4.8
T5F	4.58
T5I	4.45
T5L	4.45
T5S	4.3
T5R	4.93
T5M	5.01
A2S	4.88
A2H	4.74
A2L	5.17
A2D	5.13
A2C	4.4
A2I	4.07
A2T	4.11
A2G	5.22
A2R	3.7
A2Y	4.61

Variant	protein stability index
A2W	3.88
A2M	4.6
A2E	4.48
A2N	5.04
A2K	4.13
A2F	4.53
A2V	4.67
A2Q	4.54
P1S	4.78
P1Q	3.91
P1E	4.63
P1V	4.24
P1H	4.32
P1F	3.44
P1I	4.09
P1W	3.84
P1K	4.04
P1C	3.24
P1A	4.26
P1L	4
P1T	4.58
P1Y	3.1
P1D	4.56
P1N	4.08

Variant	protein stability index
P1M	4.25
P1G	4.33
P1R	4.74
P7W	4.02
P7H	4.29
P7T	4.54
P7V	4.06
P7Y	4.28
P7M	4.62
P7R	3.81
P7G	4.5
P7F	4.08
P7I	5.37
P7N	4.48
P7K	3.38
P7C	4.46
P7E	4.67
P7A	4.07
P7L	4.6
P7D	4.67
P7Q	5.02
P7S	4.68
D13H	3.71
D13P	3.63

Variant	protein stability index
D13A	4.35
D13G	3.85
D13L	3.84
D13K	2.67
D13N	4.23
D13F	4.14
D13C	3.9
D13E	3.76
D13I	3.65
D13M	4.09
E11L	3.84
E11Y	4.02
E11W	3.96
E11K	3.92
E11F	3.95
E11Q	4.22
E11T	4.18
E11A	3.79
E11H	3.41
E11G	4.04
E11D	4.21
E11C	4.43
E11S	4.38
E11R	3.98

Variant	protein stability index
E11N	4.26
E11I	3.36
E11P	4.82
E11M	3.59
E11V	4.24
E4H	3.77
E4S	4.32
E4L	4.22
E4C	3.96
E4W	3.52
E4A	4.42
E4T	4.46
E4M	3.95
E4Y	2.74
E4V	4.11
E4D	4.91
E4N	4.31
E4R	3.77
E4F	3.64
E4K	4.31
E4G	4.07
E4I	3.21
E4Q	4.9
D10N	4.49

Variant	protein stability index
D10Y	3.51
D10Q	4.41
D10G	3.68
D10H	3.56
D10F	3.39
D10V	3.69
D10W	3.98
D10A	4.36
D10S	4.44
D10P	4.6
D10I	3.68
D10L	4.33
D10K	3.53
D10M	3.05
D10R	3.86
D10E	4.16
D10T	4.14
D10C	3.36
Q6P	4.55
Q6Y	4.66
Q6F	4.25
Q6N	4.3
Q6M	4.13
Q6K	4.26

Variant	protein stability index
Q6W	4.15
Q6A	4.44
Q6C	4.7
Q6T	4.7
Q6I	4.77
Q6H	4.73
Q6G	5.04
Q6D	4.92
Q6R	4.34
Q6E	4.39
Q6V	3.97
Q6L	4
Q8L	4.05
Q8Y	3.89
Q8G	3.6
Q8C	5.05
Q8K	3.9
Q8D	5.29
Q8N	5.23
Q8R	4.6
Q8H	4.96
Q8W	4.16
Q8P	4.33
Q8T	4.86

Variant	protein stability index
Q8E	5.1
Q8V	5.17
Q8S	4.74
Q8I	5.02
Q8M	4.87
Q8F	4.48
Q8A	4.88
L3Q	4.97
L3R	4.44
L3V	4.87
L3S	5.03
L3T	4.9
L3Y	4.81
L3I	5.31
L3D	5.37
L3P	5.08
L3K	4.27
L3H	4.36
L3N	4.23
L3M	4.83
L3W	4.04
L3C	5.01
L3F	4.85
L3E	5.59

Variant	protein stability index
L3G	4.33
G9S	5.09
G9I	4.08
G9P	4.88
G9C	5.16
G9R	4.34
G9E	5.22
G9N	4.78
G9Y	4.74
G9L	4.84
G9F	4.89
G9M	4.76
G9H	4.71
G9V	4.87
G9W	4.62
G9A	4.92
G9K	4.55
G9D	4.63
G9T	4.97
